Reference: article PMC2064744 (The Journal of Cell Biology, 2007)

T1: tandem L27 domain of rat CASK (L27NL27C_CASK, residues 329-460) (rat, UniProt Q62915 329-460)
T1 sequence: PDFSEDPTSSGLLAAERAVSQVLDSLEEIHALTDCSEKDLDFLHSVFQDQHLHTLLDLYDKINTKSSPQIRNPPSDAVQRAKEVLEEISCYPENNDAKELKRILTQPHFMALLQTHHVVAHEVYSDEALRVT

T2: tandem PALS L27 domains
T2 chain: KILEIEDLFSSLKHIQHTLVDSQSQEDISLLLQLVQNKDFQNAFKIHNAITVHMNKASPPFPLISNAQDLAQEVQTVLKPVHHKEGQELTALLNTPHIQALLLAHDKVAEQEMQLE

B1: L27 domain of rat DLG (L27DLG, residues 1-65) (domain or fragment)
chain: MPVRKQDTQRALHLLEEYRSKLSQTEDRQLRSSIERVISIFQSNLFQALIDIQEFYEVTLLDNPK
B2: MALS L27 (in the MALS/PALS/PATJ L27 complex, unpublished data) (domain or fragment)
chain: AALVEPLGLERDVSRAVELLERLQRSGELPPQKLQALQRVLQSRFCSAIREVYEQLYDTLDITGSAEVRAHATAKAT
B3: PATJ L27 (domain or fragment)
chain: MPENPAAEKMQVLQVLDRLRGKLQEKGDTTQNEKLSAFYETLKSPLFNQILTLQQSIKQLKGQLS
B4: L27 domain of mouse MALS (L27_MALS, residues 2-78) (domain or fragment)
chain: AALGEPVRLERDICRAIELLEKLQRSGEVPPQKLQALQRVLQSEFCNAVREVYEHVYETVDISSSPEVRANATAKAT

Experiments:
[1] = molecular target: T1, tandem L27 domain of rat CASK …; test: SEC
[2] = molecular target: T2, tandem PALS L27 domains; test: SEC

| Binder | stoichiometry N [1] | stoichiometry N [2] |
| --- | --- | --- |
| B1 | 1 | – |
| B2 | – | 1 |
| B3 | – | 1 |
| B4 | 1 | – |
